Assay [1] deals with E0771, B16F10, or LLC1 cancer cells. In words: Tumor growth after intratumoral delivery, syngeneic models. It is filed as in vivo, C57BL/6 mice. The note with it: 11.6 μg intratumorally once/day for 5 days. The method, then: ELANE activity is required for its anti-tumor function in vivo. (FIG. 14A) Catalytic activity of ELANE or ELANE that had been inactivated by treatment with 100 nM PMSF (PMSF-ELANE) was determined by a chromogenic substrate. (FIG. 14B) E0771, B16F10, or LLC1 cancer cells were injected into C57BL/6 mice. Once tumors reached ˜100 mm^3, human serum albumin (HSA, 11.6 μg), ELANE (11.6 μg), or PMSF-ELANE (11.6 μg) were delivered intratumorally once/day for 5 days. Tumor volume was assessed by calipers.

Another assay relates to E0771 cancer cells. In words: E0771 tumors in Rag2-/- versus wild type mice. In kind it is in vivo, C57BL/6 mice. The note with it: 11.6 μg intratumorally once/day for 5 days. The procedure: The inventors therefore explored whether ELANE-mediated cancer cell killing could positively influence the immune cells in the tumor. Rag2^−/− mice in C57BL/6 background (no adaptive immunity) and wild type (wt) C57BL/6 mice were both ordered from the Jackson laboratory. E0771 cancer cells were injected into both mouse models. Once tumors reached ˜100 mm^3. ELANE (11.6 μg) or HAS (11.6 μg) were delivered intratumorally once/day for 5 days. Tumor volume was assessed by calipers. Kaplan-Meier curve was plotted and the logrank test (Mentel-Cox method) was used for mouse survival analysis. End point of survival is defined as tumor volume >1000 mm^3.
Adaptive immune cells contribute to ELANE's therapeutic efficacy. Rag2-deficient (Rag2−/−) mice on the C57BL/6 background (no adaptive immunity) and wild type (wt) C57BL/6 mice were injected with E0771 cancer cells. Once tumors reached ˜100 mm^3. ELANE (11.6 μg) or HSA (11.6 μg) were delivered intra-tumorally once/day for 5 days. (FIG. 18A) Tumor volume was assessed by calipers. (FIG. 18B) Kaplan-Meier curve was plotted and the logrank test (Mentel-Cox method) was used for survival analysis. End point of survival is defined as tumor volume >1000 mm^3.

The next assay has as its system Cancer cells. In words: Killing program signaling in cancer cells (ERK, NFKB, JNK, ROS, H2AX, CASP3, PARP). The note with it: 50 nM. In kind it is cell-based, Human and mouse. The method, then: (FIG. 10A) Cancer cells were treated with ELANE (50 nM) for 4 hrs, and phosphorylated and total ERK, NFKB, and JNK were quantified by western blotting. Immunoblots for E0771 cancer cells are shown as an example. (FIG. 10B) Cancer cells were treated with various doses of ELANE for 1 hr and mitochondrial ROS was measured by flow cytometry using CM-H2DCFDA dye. (FIG. 10C) Cancer cells were treated with ELANE (50 nM) and DNA damage was assessed by immunoblotting for phospho-(γH2AX) and total H2AX. Immunoblots for A549 cancer cells are shown as an example. (FIG. 10D) Cells were treated with ELANE (50 nM) for 8 hrs, and full length and cleaved CASP3 (c-CASP3) and cleaved PARP (c-PARP) were quantified by immunoblotting. Immunoblots for LLC1 cancer cells are shown as an example. *, p<0.05, Student's t-test.
ELANE induces a robust killing program in a variety of cancer cells. Human and mouse cancer cells were treated with ELANE and signaling pathways associated with cancer cell death were assessed. Cells were treated with ELANE (50 nM) for 4 hrs, and phosphorylated and total ERK, NFKB, and JNK were quantified by western blotting. Cells were treated with various doses of ELANE for 1 hr and mitochondrial ROS was measured by flow cytometry using CM-H2DCFDA dye. Cells were treated with ELANE (50 nM) and DNA damage was assessed by western blot for phospho-(γH2AX) and total H2AX. […]

For another assay, the system named is CD95. As to the kind of experiment: Recombinant CD95 degradation, SDS-PAGE and coomassie blue. It is filed as biochemical, human. The note with it: ELANE 0.05 μg, 1 μg recombinant protein, 2 hrs at 37° C. The method, then: ELANE lowers CD95 levels in cancer cells and reduced CD95 levels are associated with apoptosis. (FIG. 8A) Recombinant proteins (1 μg) corresponding to full length CD95 (FL-CD95), N-terminal domain of CD95 (amino acids 1-173; N-CD95), or C-terminal domain of CD95 (amino acids 157-320; C-CD95) were inbuated with ELANE (0.05 μg) or vehicle (Veh) for 2 hrs at 37° C. Degradation was assessed by SDS-PAGE followed by coomassie blue staining. […] (FIG. 8C) Cancer cells were treated with ELANE (50 nM) for 1 hr, fixed in 10% formalin, and stained with N- or C-terminal specific anti-CD95 antibodies (green). Hoechst 33342 solution was used for nuclear staining (blue). Images were taken under 40×.
ELANE selectively cleaves the C-terminal domain of CD95. […] Degradation was assessed by SDS-PAGE followed by staining with coomassie blue. […] Mel888 cancer cells were treated with ELANE (50 nM) for various times, and CD95 degradation was assessed by western blot analysis with a C-terminal specific anti-CD95 antibody.
Other serine proteases cleave the C-terminal domain of CD95, and the ability to cleave the C-terminal domain is associated with cancer cell killing. […] Degradation was assessed by SDS-PAGE followed by coomassie blue staining. […] Cell viability was assessed by Calcein AM staining.

Experimental findings from patent US12564623B2, “Methods and compositions for treating cancer” (The University of Chicago, priority 2017, dated 2026) are described below.

B1: neutrophil elastase (protein, listed as Homo sapiens)
chain: MTLGRRLACLFLACVLPALLLGGTALASEIVGGRRARPHAWPFMVSLQLRGGHFCGATLIAPNFVMSAAHCVANVNVRAVRVVLGAHNLSRREPTRQVFAVQRIFENGYDPVNLLNDIVILQLNGSATINANVQVAQLPAQGRRLGNGVQCLAMGWGLLGRNRGIASVLQELNVTVVTSLCRRSNVCTLVRGRQAGVCFGDSGSPLVCNGLIHGIASFVRGGCASGLYPDAFAPVAQFVNWIDSIIQRSEDNPCPHPRDPDPASRTH
notes: purified native ELANE
In the case of B1, the tumor growth result in assay [1] is “slows tumor growth”. Moreover, the “efficacy in immune competent versus adaptive immunity deficient mice” value in the assay on E0771 cancer cells is on record as “more efficacious than adaptive immunity deficient mice”. The “killing program in cancer cells” value in the assay on Cancer cells is given as “induces a robust killing program in cancer cells”. Further, the “cleavage of CD95 domains” value with CD95 is on record as “preferentially cleaves the C-terminal domain of CD95”.
